Here are results for six molecules from article PMC7170535, “Inter-α-inhibitor heavy chain-1 has an integrin-like 3D structure mediating immune regulatory activities and matrix stabilization during ovulation” (The Journal of Biological Chemistry, 2020).

Positions count from the first letter of the chain named.

The chains are these.
B1: fibronectin type III repeats 13 and 14 (cFN13–14) (domain or fragment, human, UniProt P02751-1 1812-1991, looked up)
chain: ENVSPPRRARVTDATETTITISWRTKTETITGFQVDAVPANGQTPIQRTIKPDVRSYTITGLQPGTDYKIYLYTLNDNARSSPVVIDASTAIDAPSNLRFLATTPNSLLVSWQPPRARITGYIIKYEKPGSPPREVVPRPRPGVTEATITGLEPGTEYTIYVIALKNNQKSEPLIGRKKT
notes: Fibronectin, human, amino acid residues 1812-1991 (type III repeats 13 and 14); Mass spectrometry matched the construct with the N-terminal methionine removed; the monomeric protein was separated from dimeric cFN13–14 on heparin; source: E. coli BL21(DE3) pLysS, purified (nickel Sepharose, HisTrap HP, HiTrap heparin HP; monomeric form)
B2: recombinant inter-α-inhibitor heavy chain 1 (rHC1), ΔvWFA mutant lacking residues 288-478 (natural protein, human, UniProt P19827 35-672, looked up)
chain: SKSSEKRQAVDTAVDGVFIRSLKVNCKVTSRFAHYVVTSQVVNTANEAREVAFDLEIPKTAFISDFAVTADGNAFIGDIKDKVTAWKQYRKAAISGENAGLVRASGRTMEQFTIHLTVNPQSKVTFQLTYEEVLKRNHMQYEIVIKVKPKQLVHHFEIDVDIFEPQGISKLDAQASFLPKELAAQTIKKSFSGKKGHVLFRPTVSQQQSCPTCSTSLLNGHFKVTYDVSRDKICDLLVANNHFAHFFAPQNLTLLVDVDLQYPQDAVLALTQNHHKQYYEGSEIVVAGRIADNKQSSFKADVQAHGEGQEFSITCLVDEEEMKKLLRERGHMLENHVERLWAYLTIQELLAKRMKVDREERANLSSQALQMSLDYGFVTPLTSMSIRGMADQDGLKPTIDKPSEDSPPLEMLGPRRTFVLSALQPSPTHSSSNTQRLPDRVTGVDTD
notes: source: expressed and purified as described previously (58)
B3: TGFβ3-LAP, small latent complex of TGFβ3 (complex)
chain 1: LSTCTTLDFGHIKKKRVEAIRGQILSKLRLTSPPEPTVMTHVPYQVLALYNSTRELLEEMHGEREEGCTQENTESEYYAKEIHKFDMIQGLAEHNELAVCPKGITSKVFRFNVSSVEKNRTNLFRAEFRVLRVPNPSSKRNEQRIELFQILRPDEHIAKQRYIGGKNLPTRGTAEWLSFDVTDTVREWLLRRESNLGLEISIHCPCHTFQPNGDILENIHEVMEIKFKGVDNEDDHGRGDLGRLKKQKDHHNPHLILMMIPPHRLDNPGQGGQRKKR
chain 2: ALDTNYCFRNLEENCCVRPLYIDFRQDLGWKWVHEPKGYYANFCSGPCPYLRSADTTHSTVLGLYNTLNPEASASPCCVPQDLEPLTILYYVGRTPKVEQLSNMVVKSCKCS
B4: recombinant inter-α-inhibitor heavy chain 1 (rHC1), wild type (natural protein, human, UniProt P19827 35-672, looked up)
chain: SKSSEKRQAVDTAVDGVFIRSLKVNCKVTSRFAHYVVTSQVVNTANEAREVAFDLEIPKTAFISDFAVTADGNAFIGDIKDKVTAWKQYRKAAISGENAGLVRASGRTMEQFTIHLTVNPQSKVTFQLTYEEVLKRNHMQYEIVIKVKPKQLVHHFEIDVDIFEPQGISKLDAQASFLPKELAAQTIKKSFSGKKGHVLFRPTVSQQQSCPTCSTSLLNGHFKVTYDVSRDKICDLLVANNHFAHFFAPQNLTNMNKNVVFVIDISGSMRGQKVKQTKEALLKILGDMQPGDYFDLVLFGTRVQSWKGSLVQASEANLQAAQDFVRGFSLDEATNLNGGLLRGIEILNQVQESLPELSNHASILIMLTDGDPTEGVTDRSQILKNVRNAIRGRFPLYNLGFGHNVDFNFLEVMSMENNGRAQRIYEDHDATQQLQGFYSQVAKPLLVDVDLQYPQDAVLALTQNHHKQYYEGSEIVVAGRIADNKQSSFKADVQAHGEGQEFSITCLVDEEEMKKLLRERGHMLENHVERLWAYLTIQELLAKRMKVDREERANLSSQALQMSLDYGFVTPLTSMSIRGMADQDGLKPTIDKPSEDSPPLEMLGPRRTFVLSALQPSPTHSSSNTQRLPDRVTGVDTD
notes: Monomer in EDTA, monomer-dimer equilibrium in Mg2+ or Mn2+; also called rHC1 (WT); WT rHC1; source: expressed and purified as described previously (58)
B5: TGFβ2-LAP, small latent complex of TGFβ2 (complex)
chain 1: LSTCSTLDMDQFMRKRIEAIRGQILSKLKLTSPPEDYPEPEEVPPEVISIYNSTRDLLQEKASRRAAACERERSDEEYYAKEVYKIDMPPFFPSENAIPPTFYRPYFRIVRFDVSAMEKNASNLVKAEFRVFRLQNPKARVPEQRIELYQILKSKDLTSPTQRYIDSKVVKTRAEGEWLSFDVTDAVHEWLHHKDRNLGFKISLHCPCCTFVPSNNYIIPNKSEELEARFAGIDGTSTYTSGDQKTIKSTRKKNSGKTPHLLLMLLPSYRLESQQTNRRKKR
chain 2: ALDAAYCFRNVQDNCCLRPLYIDFKRDLGWKWIHEPKGYNANFCAGACPYLWSSDTQHSRVLSLYNTINPEASASPCCVSQDLEPLTILYYIGKTPKIEQLSNMIVKSCKCS
B6: vitronectin (natural protein, UniProt P04004 20-478, looked up)
chain: DQESCKGRCTEGFNVDKKCQCDELCSYYQSCCTDYTAECKPQVTRGDVFTMPEDEYTVYDDGEEKNNATVHEQVGGPSLTSDLQAQSKGNPEQTPVLKPEEEAPAPEVGASKPEGIDSRPETLHPGRPQPPAEEELCSGKPFDAFTDLKNGSLFAFRGQYCYELDEKAVRPGYPKLIRDVWGIEGPIDAAFTRINCQGKTYLFKGSQYWRFEDGVLDPDYPRNISDGFDGIPDNVDAALALPAHSYSGRERVYFFKGKQYWEYQFQHQPSQEECEGSSLSAVFEHFAMMQRDSWEDIFELLFWGRTSAGTRQPQFISRDWHGVPGQVDAAMAGRIYISGMAPRPSLAKKQRFRHRNRKGYRSQRGHSRGRNQNSRRPSRATWLSLFSSEESNLGANNYDDYRMDWLVPATCEPIQSVFFFSGDKYYRVNLRTRRVDTVDPPYPRSIAQYWLGCPAPGHL
notes: Vitronectin; source: bought: PeproTech

Data set [1] addresses T1, recombinant inter-α-inhibitor heavy chain 1 (rHC1), D298A MIDAS mutant (human, UniProt P19827 35-672, D298A).
T1 construct: source: expressed and purified as described previously (58)
T1 sequence (looked up): B4 chain with D264A
The experiment in a line: SPR; 1,000 RU rHC1 proteins immobilised on a C1 chip; cFN13–14 at 7.5-120 nM as analyte; HEPES-buffered saline pH 7.4, 0.05% Tween 20, no added metal ions or EDTA; 30 μl/min; single cycle kinetics, 1:1 Langmuir. Particulars: both partners purified.

In data set [2] the target is B4. Described as above. Particulars: both partners purified.
The target of data set [3] is B2. Described as above. Particulars: both partners purified.
The target in the data set “vitronectin” is B6. The data set is described as follows: SPR; 1,500 RU rHC1 proteins immobilised on a C1 chip by amide cross-linking; ligand as analyte; HEPES-buffered saline pH 7.5, 0.05% Tween 20, 10 mM EDTA; 50 μl/min; multicycle kinetics, 1:1 Langmuir. The following applies: both partners purified.
Data set [4] deals with T1, recombinant inter-α-inhibitor heavy …. The data set is described as follows: SPR; 1,500 RU rHC1 proteins immobilised on a C1 chip by amide cross-linking; ligand as analyte; HEPES-buffered saline pH 7.5, 0.05% Tween 20, 2 mM Mg2+, 2 mM Mn2+; 50 μl/min; multicycle kinetics, 1:1 Langmuir. Particulars: both partners purified.
Data set [5] deals with B4. Described as above. Particulars: both partners purified.
Data set [6] deals with the molecule itself. The experiment in a line: AUC; equilibrium AUC; rHC1 at 4, 11 and 22 μM with 0.1, 0.5, 1 or 5 mM MgCl2; 20 °C; global fit to a monomer–dimer model; dimer to monomers.
Data set [7] concerns the molecule itself. The data set is described as follows: SAXS; rHC1 proteins at 1.25, 2.5 and 5.0 mg/ml in HEPES-buffered saline pH 7.5 with 5 mM MgCl2.
The target in data set [8] is T1, recombinant inter-α-inhibitor heavy …. The experiment in a line: SPR; 1,500 RU rHC1 proteins immobilised on a C1 chip by amide cross-linking; ligand as analyte; HEPES-buffered saline pH 7.5, 0.05% Tween 20, 10 mM EDTA; 50 μl/min; multicycle kinetics, 1:1 Langmuir. Particulars: both partners purified.
Data set [9] addresses B4. Described as above. Particulars: both partners purified.

One may read the Kd as the concentration at which binding is half-saturated. On to B1, for which the Kd was 15.7 nM in data set [1], 14 nM in [2] and 16.3 nM in data set [3].

Turning to B2, binding in the data set with vitronectin was put at a Kd of 0.097 nM.

For B3, the results for the Kd in [4] and in data set [5] were 3.1 nM and 9.9 nM, respectively.

For orientation: stoichiometry N means a count of units in the complex or per binding partner. As to B4, the Kd in data set [6] is 35.3 µM. Further, the “stoichiometry N” value in data set [7] is 2.

B5: the Kd in data set [4] came out at 12.9 nM; in data set [5], 8.8 nM.

Regarding B6, the Kd in data set [8] stood at 0.138 nM; in [9], 0.192 nM; in [4], 0.096 nM; in data set [5], 0.118 nM.
